Measured values as given in the supplement of paper PMC7125110.
± gives the standard error. Variants at the floor of the assay were thinned out.

B1: glmS ribozyme (parent)
chain: AUAAAAGCGCCAGAACUACAGAAAUGUAGUUGACGAGGAGGAGGUUUAUCGAAUUUUCGGCGGAUGCCUCCAAA

Key:
Details in all cases: with glucosamine-6-phosphate
[1] = variants of: B1; experiment: self-cleavage kobs at 640 uM GlcN6P; higher = faster cleavage; RNA array
Method in brief: (§1)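 In situ transcription by E. coli RNA polymerase produced barcoded ribozyme variants on sequenced MiSeq chips, and a hybridised Cy3 probe tracked them at 37 °C. Glucosamine-6-phosphate was flowed in at 40 μM to 10 mM in HEPES/KCl/Mg(OAc)2 buffer. kcat and KM were taken from weighted Michaelis–Menten fits of kobs values from exponential decay fits.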

[2] = variants of: B1; experiment: self-cleavage kobs at 10000 uM GlcN6P; higher = faster cleavage; RNA array
Method in brief: as §1

[3] = variants of: B1; experiment: self-cleavage kobs at 2500 uM GlcN6P; higher = faster cleavage; RNA array
Method in brief: as §1

Row | Variant | self-cleavage kobs at 640 uM GlcN6P [1] [s⁻¹] | self-cleavage kobs at 10000 uM GlcN6P [2] [s⁻¹] | self-cleavage kobs at 2500 uM GlcN6P [3] [s⁻¹]
1 | AUAAAAGCGCCAGAAAUACAGAAAUGUAGUUGACGAGGAGGAGGUUUAUCGAAUUUUCGGCGGAUGCCUUAAAA [C16A C70U C71A] | 0.00012 ± 4.3e-05 | – | –
2 | AUAAAAGCGCCAGAAGUACAGAAAUGUAGUUGAGGAGGAGGCAGUUUAUCGAAUUUUCGGCGGAUGCCUCCAAA [C16G C34G A42C G43A] | < 1e-05 | – | –
3 | AUAAAAGCGCCAGAAUUACAGAAAUGUAGUUGACGCGAAGGAGGUUUAUCGAAUUUUCGGCGGAUGCCUCCAAA [C16U A36C G38A] | < 1e-05 | < 1e-05 | –
4 | AUAAAAGCGCCAGAAGUACAGAAAUGUAGUUGACGAGGAGGAGGUAUAGCGAAUUUUCGGCGGAUGGCGCGAAA [C16G U46A U49G C67G U69G C71G] | < 1e-05 | – | –
5 | AUAAAAGCGCCAGAAAUACAGAAAUGUAGUUGACGAGGAGGAGGUUUAUCGAAUUGUGGGCCGAUGCCUCCAAA [C16A U56G C58G G62C] | < 1e-05 | – | –
6 | AUAAAAGCGCCAGAAGUACAGAAAUGUAAUUGACGAGGAAGCGGUUUAUCGAAUUUUCGGCGGAUGCCUCCAAA [C16G G29A G40A A42C] | < 1e-05 | – | < 1e-05
7 | AUAAAAGCGCCAGAAGUACAGAAAUGUAGUUUACGAGGAGGAGGUUUAUCGAAUUUUCGGUGGAUGCCUCCAAA [C16G G32U C61U] | < 1e-05 | – | < 1e-05
8 | AUAAAAGCGCCAGAAAUACAGAAAUGUAGUUGACGAGGAGGAGGUUUAUCGAAUUGUCGGCGGAGGCCUCCAAA [C16A U56G U65G] | 5.32e-05 ± 2.4e-05 | – | 0.000165 ± 5.6e-05
9 | AUAAAAGCGCCAGAAGUACAGAAAUGUAGUUGACGAGGAGGAGGUUUUUGGAAUUUUCGGCGGAUGCCUACAAA [C16G A48U C50G C70A] | 5.34e-05 ± 2.6e-05 | – | –
10 | AUAAAAGCGCCAGAAAUACAGAAAUGUAGUUGACGAGGAGGAGGUUUAUCUAAUUUUCGGCGGAUGCCGCCAAA [C16A G51U U69G] | 9.84e-05 ± 4.1e-05 | – | 0.000199 ± 9.6e-05
11 | AUAAAAGCGCCAGAAGUACAGAAAUGUAGUUGACGAGGAGGAGGUUUAUCAAAUUUUCGGCGGUUGCCUCCAAA [C16G G51A A64U] | < 1e-05 | – | –
12 | AUAAAAGCGCCAGAAGUACAGAAAUGUAGCUGACGAGGAGGAGGUUUAUUGAAUUUUCGGCGGAUGCCUCCAAA [C16G U30C C50U] | < 1e-05 | – | –
13 | AUAAAAGCGCCAGAAGUACAGAAAUGUAGUUGACGAGGAGGAGGUUUAUCGAAUUUUCGGCGUAUGCCUCCAAA [C16G G63U] | < 1e-05 | < 1e-05 | < 1e-05
14 | AUAAAAGCGCCAGAAUUACAGAAAUGUAGUUGACGAGGGGGUGGUUAAUCGAAUUUUCGGCGGAUGCCUCCAAA [C16U A39G A42U U47A] | 5.33e-05 ± 2.6e-05 | – | 0.000115 ± 1.9e-05
15 | AUAAAAGCGCCAGAAGUACAGAAAUGUAGUUGACGGGGAAGAGGUUUAUCGAAUUUUCGGCGUAUGCCUCCAAA [C16G A36G G40A G63U] | < 1e-05 | – | < 1e-05
16 | AUAAAAGCGCCAGAAAUACAGAAAUGUAGUUGACGAGGAGGCGGUUUAUCGAAUUUUCGGCGGAUGCCUCUAAA [C16A A42C C71U] | < 1e-05 | – | < 1e-05
17 | AUAAAAGCGCCAGAAGUACAGAAAUGUAGUUGACGAGGAGGAGGAUUAUCGAAUUUUAGGCGGAUGCCUCCAAA [C16G U45A C58A] | 6.95e-05 ± 1.6e-05 | – | 0.000197 ± 3.9e-05
18 | AUAAAAGCGCCAGAAGUACAGAAAUGUAGUUGACGAGGAGGAGGCUUAUCGAAAUUUCGGCGGAUGCCUUCAAA [C16G U45C U54A C70U] | 6.18e-05 ± 2.7e-05 | – | –
19 | AUAAAAGCGCCAGAAAUACAGAAAUGUAGGUGACGAGGAGGAGGGUUAUCGAAUUUUCGACGGAUUCCUCCAAA [C16A U30G U45G G60A G66U] | < 1e-05 | – | –
20 | AUAAAAGCGCCAGAAGUACAGAAAUGUAGUUGACCAGGAGGAGGUUUAUCGAAUAAUCGGCGGAUGCCUCCAAA [C16G G35C U55A U56A] | < 1e-05 | – | < 1e-05
21 | AUAAAAGCGCCAGAAGUACAGAAAUGUAGUUGACGAGGAGGAGUUUUAUCUAAUUUUCGGUGGAUGCCUCCAAA [C16G G44U G51U C61U] | < 1e-05 | – | < 1e-05
22 | AUAAAAGCGCCAGAAAUACAGAAAUGUAGUUGACGAGUAGGAGGUUAAUCGAAUUUUCGGCGGAUGCCUCCAAA [C16A G38U U47A] | < 1e-05 | – | –
23 | AUAAAAGCGCCAGAAAUACAGAAAUGUAGUUGACGAGGAGGAGGUUUAUCGAACUUUCUGCGGAUGCCUCCAAA [C16A U54C G59U] | < 1e-05 | – | –
24 | AUAAAAGCGCCAGAAUUACAGAAAUGUAGUUGUCGAGGAGGAGGUUUAACGAAUUUUCGGCGGAUGCCUCCAAA [C16U A33U U49A] | < 1e-05 | – | < 1e-05
